For experiment [1], the target named is spike of SARS-CoV-2 Eng20 (WT) (SARS-CoV-2, UniProt P0DTC2 14-1273). Nature of the experiment: cell-based or functional assay.
Experiment [2] has as its target T1, WIV1 Spike on pseudovirus (WIV1 (bat SARS-like coronavirus)). Kind of experiment: cell-based or functional assay.
Experiment [3] has as its target T2, SARS-CoV-1 Spike on pseudovirus (SARS-CoV-1, UniProt P59594 14-1255). Nature of the experiment: cell-based or functional assay.
In experiment [4] the target is T1, WIV1 Spike on pseudovirus. Kind of experiment: cell-based or functional assay. This is another data set of the same source.
Experiment [5] deals with T2, SARS-CoV-1 Spike on pseudovirus. Nature of the experiment: cell-based or functional assay. The source holds these as a separate data set.
The target of experiment [6] is T1, WIV1 Spike on pseudovirus. Kind of experiment: cell-based or functional assay. The source holds these as a separate data set.
For experiment [7], the target named is T2, SARS-CoV-1 Spike on pseudovirus. Kind of experiment: cell-based or functional assay. This is another data set of the same source.
Experiment [8] deals with T3, MERS spike trimer (recombinant, negative control) (MERS, UniProt K9N5Q8 18-1296).
T3 sequence: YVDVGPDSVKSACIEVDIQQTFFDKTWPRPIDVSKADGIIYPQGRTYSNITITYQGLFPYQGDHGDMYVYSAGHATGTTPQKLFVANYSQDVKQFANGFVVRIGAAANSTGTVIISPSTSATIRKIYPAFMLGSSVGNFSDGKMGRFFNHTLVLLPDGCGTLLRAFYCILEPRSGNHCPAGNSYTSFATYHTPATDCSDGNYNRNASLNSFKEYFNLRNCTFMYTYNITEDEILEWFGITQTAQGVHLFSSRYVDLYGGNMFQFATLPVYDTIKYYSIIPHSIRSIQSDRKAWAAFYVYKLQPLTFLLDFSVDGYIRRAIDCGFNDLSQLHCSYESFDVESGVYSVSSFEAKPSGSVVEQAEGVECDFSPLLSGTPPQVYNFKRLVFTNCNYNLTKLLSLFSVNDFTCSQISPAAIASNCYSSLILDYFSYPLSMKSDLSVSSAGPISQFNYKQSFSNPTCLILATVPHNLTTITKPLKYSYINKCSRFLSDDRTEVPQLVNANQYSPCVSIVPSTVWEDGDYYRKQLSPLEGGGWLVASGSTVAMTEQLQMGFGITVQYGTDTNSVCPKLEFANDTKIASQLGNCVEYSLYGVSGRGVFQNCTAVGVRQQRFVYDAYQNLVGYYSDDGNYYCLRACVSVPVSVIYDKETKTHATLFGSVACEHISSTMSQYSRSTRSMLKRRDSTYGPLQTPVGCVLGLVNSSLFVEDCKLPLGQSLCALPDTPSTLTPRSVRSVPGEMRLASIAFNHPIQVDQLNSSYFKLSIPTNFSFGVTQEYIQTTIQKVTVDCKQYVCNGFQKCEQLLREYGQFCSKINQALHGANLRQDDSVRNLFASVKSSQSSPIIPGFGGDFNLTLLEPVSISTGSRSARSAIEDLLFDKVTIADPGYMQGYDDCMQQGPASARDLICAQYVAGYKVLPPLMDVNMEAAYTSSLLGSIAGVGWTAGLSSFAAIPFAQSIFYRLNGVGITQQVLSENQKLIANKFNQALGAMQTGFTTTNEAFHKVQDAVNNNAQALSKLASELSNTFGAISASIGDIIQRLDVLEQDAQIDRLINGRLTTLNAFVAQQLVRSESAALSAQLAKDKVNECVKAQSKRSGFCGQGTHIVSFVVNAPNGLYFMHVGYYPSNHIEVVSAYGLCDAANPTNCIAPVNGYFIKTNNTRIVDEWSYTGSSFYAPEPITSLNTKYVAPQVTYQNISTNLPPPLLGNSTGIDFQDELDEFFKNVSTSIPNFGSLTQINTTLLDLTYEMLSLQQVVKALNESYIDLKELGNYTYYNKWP
Nature of the experiment: SPR, Fab over anti-His-captured trimer, 25 C. For orientation: Surface plasmon resonance follows binding to a sensor surface in real time, without labels.

Positions count from the first letter of the chain named. Read-outs that look alike come from different tables or passages of the source.

B1: bebtelovimab (antibody, V domains shown)
VH: QITLKESGPTLVKPTQTLTLTCTFSGFSLSISGVGVGWLRQPPGKALEWLALIYWDDDKRYSPSLKSRLTISKDTSKNQVVLKMTNIDPVDTATYYCAHHSISTIFDHWGQGTLVTVSS
VL: QSALTQPASVSGSPGQSITISCTATSSDVGDYNYVSWYQQHPGKAPKLMIFEVSDRPSGISNRFSGSKSGNTASLTISGLQAEDEADYYCSSYTTSSAVFGGGTKLTVLG
B1: in experiment [1], the “EC50, live virus neutralization” value was found to be 0.0016 µg/mL.

B2: Reference Antibody (antibody, V domains shown)
VH: EVQLVESGAEVKKPGESLKISCKGSGYTFTRYWIGWVRQMPGKGLEWMGIIYPGDSDTRYSPSFQGHVTISADKSISTAYLQWNSLKASDTAMYYCARLPQYCSNGVCQRWFDPWGQGTLVTVSS
VL: EIVLTQSPSSVSASVGDRVTITCRASQGISSWLAWYQQKPGKAPKLLIYAASSLQSGVPSRFSGSGSGTDFTLTISSLQPEDFATYYCQQGNSFPYTFGQGTNLEIK
Consider B2, for which the “IC50, pseudovirus neutralization” value worked out at 0.0196 µg/mL in experiment [2], 0.0352 µg/mL in experiment [3], 0.473 µg/mL in experiment [4] and 0.244 µg/mL in experiment [5]. Moreover, the “% neutralization at 4.5 µg/ml, pseudovirus” value was 97.6% in experiment [6] and 94.3% in experiment [7].

B3: AB-1 Fab (Fab, V domains shown)
VH: B2 VH with T58V, N105K, Q109Y
VL: B2 VL with N92H
Take B3: in experiment [8], the binding result is “no binding (tested: 600 nM highest Fab concentration)”.

B4: Reference Antibody Fab (Fab, V domains shown)
VH: B2 VH
VL: B2 VL
B4: the binding result in experiment [8] is given as “no binding (tested: 600 nM highest Fab concentration)”.

These data come from patent publication US20230357367A1 (GENERATE BIOMEDICINES, published 2023).
